Reference: patent US20150344570A1 (published 2015)

T1: FcγRIIa H (human, UniProt P12318 34-217)
T1 construct: extracellular domain; also called FcgRIIa H; 2aH; not shown: His tag at the C terminus
T1 sequence (looked up): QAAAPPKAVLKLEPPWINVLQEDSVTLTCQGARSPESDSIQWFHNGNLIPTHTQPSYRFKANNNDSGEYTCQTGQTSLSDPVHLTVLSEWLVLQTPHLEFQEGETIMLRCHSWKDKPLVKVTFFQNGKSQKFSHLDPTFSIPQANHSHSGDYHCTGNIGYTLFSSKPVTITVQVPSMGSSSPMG

T2: FcγRIIb (human, UniProt P31994 43-217)
T2 construct: extracellular domain; also called FcgRIIb; 2b; not shown: His tag at the C terminus
T2 sequence (looked up): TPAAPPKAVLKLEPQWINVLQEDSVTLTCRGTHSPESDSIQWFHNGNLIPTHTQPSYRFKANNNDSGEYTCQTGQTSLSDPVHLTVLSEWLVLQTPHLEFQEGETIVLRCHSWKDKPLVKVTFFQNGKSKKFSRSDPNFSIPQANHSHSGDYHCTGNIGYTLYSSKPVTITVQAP


Assays:
FcγRIIa H [1] = molecular target: T1, FcγRIIa H; test: SPR (Biacore); He/Con_2aH divided by He/Con_2b (FcγRIIa H versus FcγRIIb)
Procedure: (§1) The heterodimerized antibodies He Abs in which one of the H chains was introduced with an alteration were assayed for their binding activities to each activating FcγR and inhibitory FcγR according to the method described in Example 4. […] The activating FcγRs in FIGS. 26, 27, 28, and 29 are FcγRIa, FcγRIIa (R), FcγRIIa (H), and FcγRIIIa, respectively.
(§2) Analysis of interaction between objective antibody and the FcγR was carried out using Biacore T100 (GE Healthcare). HBS-EP+ (GE Healthcare) was used as the running buffer, and the measurement temperature was set to 25° C. Chips produced by immobilizing the antigen peptide by the amine coupling method to a Series S Sencor Chip CM5 (GE Healthcare), or alternatively, chips produced by allowing preliminarily biotinylated antigen peptides to interact with and immobilize onto a Series S Sensor Chip SA (certified) (GE Healthcare) were used. Antibodies of interest were captured onto an antigen peptide-immobilized chip, and allowed to interact to each FcγR diluted with running buffer. To regenerate and repeatedly use the chip, the antibodies captured on the chip were washed off by reacting 10 mM glycine-HCl, pH 1.5.

FcγRIIa H [2] = molecular target: T1, FcγRIIa H; test: SPR (Biacore), FcγR passed over captured antibody; binding amount as % of control GpH7-A5/GpH7-B3/GpL16-k0 (=100)
Procedure: as §1, §2

FcγRIIb = molecular target: T2, FcγRIIb; test: as above
Procedure: as §1, §2

| Binder | He_2aH/2b (IIaH/IIb) (FcγRIIa H [1]) [ratio] | He/Con_2aH (FcγRIIa H [2]) | He/Con_2b (FcγRIIb) |
| --- | --- | --- | --- |
| GpH7-A5/GpH7-B3 variant A330_08L/GpL16-k0 (antibody, human IgG1, kappa, He Ab: A330L (EU numbering) in the GpH7-B3 H chain only; also called GpH7-A5/GpH7-B3-20-08L/GpL16-k0) heavy 1: not shown heavy 2: not shown light: DIVMTQSPLSLPVTPGEPASISCQASESLVHSNRNTYLHWYLQKPGQSPQLLIYKVSNRFSGVPDRFSGSGSGTDFTLKISRVEAEDVGVYYCSQNTHVPPTFGQGTKVEIERTVAAPSVFIFPPSDEQLKSGTASVVCLLNNFYPREAKVQWKVDNALQSGNSQESVTEQDSKDSTYSLSSTLTLSKADYEKHKVYACEVTHQGLSSPVTKSFNRGEC | 1.24 | 87.6 relative, control = 100 | 70.5 relative, control = 100 |
| GpH7-A5/GpH7-B3 variant A330_14T/GpL16-k0 (antibody, human IgG1, kappa, He Ab: mutation in the GpH7-B3 H chain only) heavy 1: not shown heavy 2: not shown light: DIVMTQSPLSLPVTPGEPASISCQASESLVHSNRNTYLHWYLQKPGQSPQLLIYKVSNRFSGVPDRFSGSGSGTDFTLKISRVEAEDVGVYYCSQNTHVPPTFGQGTKVEIERTVAAPSVFIFPPSDEQLKSGTASVVCLLNNFYPREAKVQWKVDNALQSGNSQESVTEQDSKDSTYSLSSTLTLSKADYEKHKVYACEVTHQGLSSPVTKSFNRGEC | 1.21 | 94.5 relative, control = 100 | 77.9 relative, control = 100 |
| GpH7-A5/GpH7-B3 variant E333_11K/GpL16-k0 (antibody, human IgG1, kappa, He Ab: mutation in the GpH7-B3 H chain only) heavy 1: not shown heavy 2: not shown light: DIVMTQSPLSLPVTPGEPASISCQASESLVHSNRNTYLHWYLQKPGQSPQLLIYKVSNRFSGVPDRFSGSGSGTDFTLKISRVEAEDVGVYYCSQNTHVPPTFGQGTKVEIERTVAAPSVFIFPPSDEQLKSGTASVVCLLNNFYPREAKVQWKVDNALQSGNSQESVTEQDSKDSTYSLSSTLTLSKADYEKHKVYACEVTHQGLSSPVTKSFNRGEC | 1.22 | 98.1 relative, control = 100 | 80.6 relative, control = 100 |
| GpH7-A5/GpH7-B3 variant A330_18N/GpL16-k0 (antibody, human IgG1, kappa, He Ab: mutation in the GpH7-B3 H chain only) heavy 1: not shown heavy 2: not shown light: DIVMTQSPLSLPVTPGEPASISCQASESLVHSNRNTYLHWYLQKPGQSPQLLIYKVSNRFSGVPDRFSGSGSGTDFTLKISRVEAEDVGVYYCSQNTHVPPTFGQGTKVEIERTVAAPSVFIFPPSDEQLKSGTASVVCLLNNFYPREAKVQWKVDNALQSGNSQESVTEQDSKDSTYSLSSTLTLSKADYEKHKVYACEVTHQGLSSPVTKSFNRGEC | 1.28 | 81.6 relative, control = 100 | 63.7 relative, control = 100 |
| GpH7-A5/GpH7-B3 variant A330_13S/GpL16-k0 (antibody, human IgG1, kappa, He Ab: mutation in the GpH7-B3 H chain only) heavy 1: not shown heavy 2: not shown light: DIVMTQSPLSLPVTPGEPASISCQASESLVHSNRNTYLHWYLQKPGQSPQLLIYKVSNRFSGVPDRFSGSGSGTDFTLKISRVEAEDVGVYYCSQNTHVPPTFGQGTKVEIERTVAAPSVFIFPPSDEQLKSGTASVVCLLNNFYPREAKVQWKVDNALQSGNSQESVTEQDSKDSTYSLSSTLTLSKADYEKHKVYACEVTHQGLSSPVTKSFNRGEC | 1.58 | 65.4 relative, control = 100 | 41.3 relative, control = 100 |
| GpH7-A5/GpH7-B3 variant E333_01G/GpL16-k0 (antibody, human IgG1, kappa, He Ab: mutation in the GpH7-B3 H chain only) heavy 1: not shown heavy 2: not shown light: DIVMTQSPLSLPVTPGEPASISCQASESLVHSNRNTYLHWYLQKPGQSPQLLIYKVSNRFSGVPDRFSGSGSGTDFTLKISRVEAEDVGVYYCSQNTHVPPTFGQGTKVEIERTVAAPSVFIFPPSDEQLKSGTASVVCLLNNFYPREAKVQWKVDNALQSGNSQESVTEQDSKDSTYSLSSTLTLSKADYEKHKVYACEVTHQGLSSPVTKSFNRGEC | 1.2 | 97.7 relative, control = 100 | 81.4 relative, control = 100 |
| GpH7-A5/GpH7-B3 variant A330_12R/GpL16-k0 (antibody, human IgG1, kappa, He Ab: mutation in the GpH7-B3 H chain only) heavy 1: not shown heavy 2: not shown light: DIVMTQSPLSLPVTPGEPASISCQASESLVHSNRNTYLHWYLQKPGQSPQLLIYKVSNRFSGVPDRFSGSGSGTDFTLKISRVEAEDVGVYYCSQNTHVPPTFGQGTKVEIERTVAAPSVFIFPPSDEQLKSGTASVVCLLNNFYPREAKVQWKVDNALQSGNSQESVTEQDSKDSTYSLSSTLTLSKADYEKHKVYACEVTHQGLSSPVTKSFNRGEC | 1.27 | 108 relative, control = 100 | 84.8 relative, control = 100 |

Results, then the binder that gave them:

| He_2aH/2b (IIaH/IIb) (FcγRIIa H [1]) [ratio] | He/Con_2aH (FcγRIIa H [2]) | He/Con_2b (FcγRIIb) | Binder |
| --- | --- | --- | --- |
| 1.3 | 105 relative, control = 100 | 80.7 relative, control = 100 | GpH7-A5/GpH7-B3 variant I332_03V/GpL16-k0 (antibody, human IgG1, kappa, He Ab: mutation in the GpH7-B3 H chain only) heavy 1: not shown heavy 2: not shown light: DIVMTQSPLSLPVTPGEPASISCQASESLVHSNRNTYLHWYLQKPGQSPQLLIYKVSNRFSGVPDRFSGSGSGTDFTLKISRVEAEDVGVYYCSQNTHVPPTFGQGTKVEIERTVAAPSVFIFPPSDEQLKSGTASVVCLLNNFYPREAKVQWKVDNALQSGNSQESVTEQDSKDSTYSLSSTLTLSKADYEKHKVYACEVTHQGLSSPVTKSFNRGEC |
| 1.55 | 16.1 relative, control = 100 | 10.4 relative, control = 100 | GpH7-A5/GpH7-B3 variant N325_11K/GpL16-k0 (antibody, human IgG1, kappa, He Ab: mutation in the GpH7-B3 H chain only) heavy 1: not shown heavy 2: not shown light: DIVMTQSPLSLPVTPGEPASISCQASESLVHSNRNTYLHWYLQKPGQSPQLLIYKVSNRFSGVPDRFSGSGSGTDFTLKISRVEAEDVGVYYCSQNTHVPPTFGQGTKVEIERTVAAPSVFIFPPSDEQLKSGTASVVCLLNNFYPREAKVQWKVDNALQSGNSQESVTEQDSKDSTYSLSSTLTLSKADYEKHKVYACEVTHQGLSSPVTKSFNRGEC |
| 1.8 | 87.8 relative, control = 100 | 48.9 relative, control = 100 | GpH7-A5/GpH7-B3 variant I332_12R/GpL16-k0 (antibody, human IgG1, kappa, He Ab: mutation in the GpH7-B3 H chain only) heavy 1: not shown heavy 2: not shown light: DIVMTQSPLSLPVTPGEPASISCQASESLVHSNRNTYLHWYLQKPGQSPQLLIYKVSNRFSGVPDRFSGSGSGTDFTLKISRVEAEDVGVYYCSQNTHVPPTFGQGTKVEIERTVAAPSVFIFPPSDEQLKSGTASVVCLLNNFYPREAKVQWKVDNALQSGNSQESVTEQDSKDSTYSLSSTLTLSKADYEKHKVYACEVTHQGLSSPVTKSFNRGEC |
| 1.52 | 30.9 relative, control = 100 | 20.3 relative, control = 100 | GpH7-A5/GpH7-B3 variant I336_20W/GpL16-k0 (antibody, human IgG1, kappa, He Ab: mutation in the GpH7-B3 H chain only) heavy 1: not shown heavy 2: not shown light: DIVMTQSPLSLPVTPGEPASISCQASESLVHSNRNTYLHWYLQKPGQSPQLLIYKVSNRFSGVPDRFSGSGSGTDFTLKISRVEAEDVGVYYCSQNTHVPPTFGQGTKVEIERTVAAPSVFIFPPSDEQLKSGTASVVCLLNNFYPREAKVQWKVDNALQSGNSQESVTEQDSKDSTYSLSSTLTLSKADYEKHKVYACEVTHQGLSSPVTKSFNRGEC |
| 1.56 | 29.9 relative, control = 100 | 19.1 relative, control = 100 | GpH7-A5/GpH7-B3 variant N325_12R/GpL16-k0 (antibody, human IgG1, kappa, He Ab: mutation in the GpH7-B3 H chain only) heavy 1: not shown heavy 2: not shown light: DIVMTQSPLSLPVTPGEPASISCQASESLVHSNRNTYLHWYLQKPGQSPQLLIYKVSNRFSGVPDRFSGSGSGTDFTLKISRVEAEDVGVYYCSQNTHVPPTFGQGTKVEIERTVAAPSVFIFPPSDEQLKSGTASVVCLLNNFYPREAKVQWKVDNALQSGNSQESVTEQDSKDSTYSLSSTLTLSKADYEKHKVYACEVTHQGLSSPVTKSFNRGEC |
| 1.27 | 73.7 relative, control = 100 | 58.2 relative, control = 100 | GpH7-A5/GpH7-B3 variant I336_19Q/GpL16-k0 (antibody, human IgG1, kappa, He Ab: mutation in the GpH7-B3 H chain only) heavy 1: not shown heavy 2: not shown light: DIVMTQSPLSLPVTPGEPASISCQASESLVHSNRNTYLHWYLQKPGQSPQLLIYKVSNRFSGVPDRFSGSGSGTDFTLKISRVEAEDVGVYYCSQNTHVPPTFGQGTKVEIERTVAAPSVFIFPPSDEQLKSGTASVVCLLNNFYPREAKVQWKVDNALQSGNSQESVTEQDSKDSTYSLSSTLTLSKADYEKHKVYACEVTHQGLSSPVTKSFNRGEC |
| 1.26 | 96.2 relative, control = 100 | 76.1 relative, control = 100 | GpH7-A5/GpH7-B3 variant E333_18N/GpL16-k0 (antibody, human IgG1, kappa, He Ab: mutation in the GpH7-B3 H chain only) heavy 1: not shown heavy 2: not shown light: DIVMTQSPLSLPVTPGEPASISCQASESLVHSNRNTYLHWYLQKPGQSPQLLIYKVSNRFSGVPDRFSGSGSGTDFTLKISRVEAEDVGVYYCSQNTHVPPTFGQGTKVEIERTVAAPSVFIFPPSDEQLKSGTASVVCLLNNFYPREAKVQWKVDNALQSGNSQESVTEQDSKDSTYSLSSTLTLSKADYEKHKVYACEVTHQGLSSPVTKSFNRGEC |
| 1.23 | 101 relative, control = 100 | 81.8 relative, control = 100 | GpH7-A5/GpH7-B3 variant E333_13S/GpL16-k0 (antibody, human IgG1, kappa, He Ab: mutation in the GpH7-B3 H chain only) heavy 1: not shown heavy 2: not shown light: DIVMTQSPLSLPVTPGEPASISCQASESLVHSNRNTYLHWYLQKPGQSPQLLIYKVSNRFSGVPDRFSGSGSGTDFTLKISRVEAEDVGVYYCSQNTHVPPTFGQGTKVEIERTVAAPSVFIFPPSDEQLKSGTASVVCLLNNFYPREAKVQWKVDNALQSGNSQESVTEQDSKDSTYSLSSTLTLSKADYEKHKVYACEVTHQGLSSPVTKSFNRGEC |
| 1.22 | 110 relative, control = 100 | 89.9 relative, control = 100 | GpH7-A5/GpH7-B3 variant I332_18N/GpL16-k0 (antibody, human IgG1, kappa, He Ab: mutation in the GpH7-B3 H chain only) heavy 1: not shown heavy 2: not shown light: DIVMTQSPLSLPVTPGEPASISCQASESLVHSNRNTYLHWYLQKPGQSPQLLIYKVSNRFSGVPDRFSGSGSGTDFTLKISRVEAEDVGVYYCSQNTHVPPTFGQGTKVEIERTVAAPSVFIFPPSDEQLKSGTASVVCLLNNFYPREAKVQWKVDNALQSGNSQESVTEQDSKDSTYSLSSTLTLSKADYEKHKVYACEVTHQGLSSPVTKSFNRGEC |
